Data taken from article PMC11656211.
Ends that are not written are not given here.

Target: TLR4/MD2 complex on HEK293-hTLR4-MD2-CD14 cells (human) (UniProt O00206)

## GYYYPSDPNTFYAPPYSA (also: HiLyte Fluor 488 label, position not given here) [HiLyte Fluor 488-labeled GK-1]
  uptake of GK-1-HF488 (MFI by flow cytometry after trypsin treatment), HEK293-TLR4 cells against HEK293-null cells, 1 h at 4 °C, 5 to 50 uM: 5 fold
  uptake of GK-1-HF488 (MFI by flow cytometry after trypsin treatment), HEK293-TLR4 cells against HEK293-null cells, 1 h at 37 °C, 5 to 50 uM: < 30 fold
